Test results from patent US20120082688A1, “In Vitro Generation of Myeloid Derived Suppressor Cells” (MOUNT SINAI SCHOOL OF MEDICINE, priority 2008, published 2012).
“Also recorded” adds a separate entry of the source.

Key:
[1] = tested on: HS-MDSC- and TD-MDSC-mediated suppression of T-cell proliferation; assay: Suppression assay with iNOS inhibitor / arginase inhibitor: MDSCs co-incubated with B6 splenocytes, anti-CD3/anti-CD28, [3H]-thymidine; assay type: cell-based, mouse
Description: The suppressive activity of MDSCs was assessed either by co-culturing 1×10^5 129SvEv (using B6 for HSC-MDSCs comparison) splenocytes with various numbers of CD115^+ cells or […] in the presence of anti-CD3/anti-CD28 (0.5 μg/ml) or by co-culturing 2×10^5 129SvEv splenocytes (responder) with an equal number of irradiated (25 Gy) BALB/c splenocytes (stimulator) in the presence of various numbers of CD115^+ or CD115^− cells for 4 days. [^3H]-thymidine was added for the last 8 hours of incubation. For Treg induction, 4×10^6/well of 129SvEv (B6 for HSC-MDSCs) splenocytes and 1×10^6 CD115^+ or CD115^− cells were cocultured for 5 days in the presence of anti-CD3/anti-CD28 (0.5 μg/ml). Foxp3 expression was determined by intracellular staining and NO level in the supernatant was measured by Greiss reagents (Sigma-Aldrich, St. Louis, Mo.).
To delineate which of the aforementioned suppressive mechanism(s) play a major role, the functional activity of HS-MDSCs was evaluated when specific pathway(s) were interfered. To evaluate the role of iNOS, HS-MDSCs (developed from Lin− B6 BM cells) or TD-MDSCs were co-incubated with B6 splenocytes at a 1:2 ratio in the absence or presence of various concentrations of L-NMMA (L) or NOHA (N), or combination of L-NMMA and NOHA. Cells were stimulated with anti-CD3/anti-CD28 and [3H]-thymidine was pulsed for the final 8 hours of a 3-day culture.

HoxB4 ES cells = assay: Differentiation of HoxB4 ES cells on OP9 stroma in M2 cytokine mix with added cytokines, FACS; assay type: cell-based, mouse
Description: Next, EB-derived cells were subjected to further differentiation by co-culturing them with OP9 stroma, an M-CSF-deficient cell line that has been widely used for in vitro differentiation of ES cells. For this, day 6 EBs (except otherwise specified) were trypsinized, and dissociated cells were seeded onto semiconfluent OP9 monolayers (irradiated immediately before coculture) at a density of 1×10^5/ml (2 ml/well, 6-well plate), and cultured in medium containing IMDM, 15% FCS (BenchMark, Gemcell), 2 mM L-glutamine, 100 U/mL penicillin and 100 μg/mL streptomycin, 1 ug/ml doxycycline, 1.5×10^−4M MTG, plus M1 cytokine mix composed of 1% c-kit Ligand (KL; CM), […] murine IL-6, and 0.5% WEHI (IL-3, CM). 2 days later, the medium was removed and replaced with 3 ml of fresh medium containing M2 cytokine mix consisting of 1% KL supernant, 0.5% murine thrombopoietin (TPO, CM), 40 ng/ml murine VEGF, 50 ng/ml murine Flt-3L or with medium containing M2 plus 10 ng/ml murine M-CSF (or M2+M-CSF) (all mouse recombinant cytokines were purchased from Peprotec Inc.), and medium was changed every other day thereafter. Unless otherwise specified, non-adherent and loosely attached cells were harvested after 10 days coculture in M2+M-CSF and used for morphologic, phenotypic, developmental, and functional analysis.
To enhance the production of ES cell-derived myeloid cells, additional cytokines were tested, including the colony-stimulating factor family members M-CSF and GM-CSF. […] For experiments in FIGS. 1C and D, Hoxb4 ES cells were differentiated with the same procedure as described in FIG. 1A, but in the last step cells were cultured for 10 day in M2 or M2 supplanted with M-CSF or GM-CSF (FIG. 1C) or M2 plus various concentration of M-CSF (FIG. 1D).

[2] = cytokine added to M2 cultures, 10 days

## CNC(=N)NCCC[C@H](N)C(=O)O [L-NMMA, N^G-monomethyl-L-arginine]
[1]; 5 μM, MDSC:splenocyte 1:2, P<0.05 HSC MDSC, P<0.01 TD-MDSC
  reversal of MDSC suppression of T cells: substantially reversed
[1]; various concentrations, dose-dependent manner
  reversal of suppression of HS- and TD-MDSCs against T-cell proliferation: partially but significantly reversed

## N=C(NO)NCCC[C@H](N)C(=O)O [NOHA]
[1]; 500 μM, MDSC:splenocyte 1:2, P>0.05
  interference with suppressive activity of HSC-MDSC or TD-MDSC: did not interfere significantly; also recorded: minimal effects

B1: granulocyte macrophage colony stimulating factor (protein, UniProt P01587 18-141, looked up)
Granulocyte-macrophage …: APTRSPITVTRPWKHVEAIKEALNLLDDMPVTLNEEVEVVSNEFSFKKLTCVQTRLKIFEQGLRGNFTKLKGALNMTASYYQTYCPPTPETDCETQVTTYADFIDSLKTFLTDIPFECKKPGQK
notes: colony-stimulating factor family cytokine added to M2 cultures
HoxB4 ES cells; [2]
  change of CD115+Ly-6C^+ cells: dramatic decrease
  change of CD115^−Ly-6C^+ cells: marked increase

B2: macrophage colony-stimulating factor (protein, UniProt P07141 33-552, looked up)
Macrophage colony-stimulating …: KEVSEHCSHMIGNGHLKVLQQLIDSQMETSCQIAFEFVDQEQLDDPVCYLKKAFFLVQDIIDETMRFKDNTPNANATERLQELSNNLNSCFTKDYEEQNKACVRTFHETPLQLLEKIKNFFNETKNLLEKDWNIFTKNCNNSFAKCSSRDVVTKPDCNCLYPKATPSSDPASASPHQPPAPSMAPLAGLAWDDSQRTEGSSLLPSELPLRIEDPGSAKQRPPRSTCQTLESTEQPNHGDRLTEDSQPHPSAGGPVPGVEDILESSLGTNWVLEEASGEASEGFLTQEAKFSPSTPVGGSIQAETDRPRALSASPFPKSTEDQKPVDITDRPLTEVNPMRPIGQTQNNTPEKTDGTSTLREDHQEPGSPHIATPNPQRVSNSATPVAQLLLPKSHSWGIVLPLGELEGKRSTRDRRSPAELEGGSASEGAARPVARFNSIPLTDTGHVEQHEGSSDPQIPESVFHLLVPGIILVLLTVGGLLFYKWKWRSHRDPQTLDSSVGRPEDSSLTQDEDRQVELPV
notes: murine recombinant cytokine added to M2 cocktail
HoxB4 ES cells; M2 plus cytokine, 10 days, dose-dependent
  production of both CD115^+ populations: significantly augmented
HoxB4 ES cells; added along with M2
  increase of frequency of both CD115 positive populations: over 2 fold
HoxB4 ES cells; higher concentration, 20 ng/ml
  percentages of CD115^+ cells: decreased
